Measured values taken from US20190309059A1 (SHANGHAI PHARMAEXPLORER, published 2019).

Key:
[1] = molecular target: his-labeled human IL-13 (immunogen A) (human) (UniProt P35225); test: FACS blocking, biotin-IL-13 on IL-13Ra1/IL-4Ra HEK293 cells; antibody at 0.27 nM
[2] = molecular target: his-labeled human IL-13 (immunogen A) (human) (UniProt P35225); test: FACS blocking, biotin-IL-13 on IL-13Ra1/IL-4Ra HEK293 cells; antibody at 166.67 nM
[3] = molecular target: his-labeled human IL-13 (immunogen A) (human) (UniProt P35225); test: ELISA, biotin-immunogen A; antibody at 2.67 nM
[4] = molecular target: his-labeled human IL-13 (immunogen A) (human) (UniProt P35225); test: FACS blocking, biotin-IL-13 on IL-13Ra2 HEK293 cells; antibody at 0.27 nM
[5] = molecular target: his-labeled human IL-13 (immunogen A) (human) (UniProt P35225); test: FACS blocking, biotin-IL-13 on IL-13Ra2 HEK293 cells; antibody at 0.05 nM
[6] = molecular target: cynomolgus IL-13 (purchased from sino biological) (cynomolgus) (UniProt Q0PW92); test: ELISA, cynomolgus IL-13; antibody at 0.11 nM
[7] = molecular target: his-labeled human IL-13 (immunogen A) (human) (UniProt P35225); test: cell-based or functional assay
[8] = molecular target: his-labeled human IL-13 (immunogen A) (human) (UniProt P35225); test: FACS blocking, biotin-IL-13 on IL-13Ra1/IL-4Ra HEK293 cells; antibody at 33.33 nM
[9] = molecular target: his-labeled human IL-13 (immunogen A) (human) (UniProt P35225); test: FACS blocking, biotin-IL-13 on IL-13Ra2 HEK293 cells; antibody at 166.67 nM
[10] = molecular target: his-labeled human IL-13 (immunogen A) (human) (UniProt P35225); test: FACS blocking, biotin-IL-13 on IL-13Ra2 HEK293 cells; antibody at 33.33 nM
[11] = molecular target: cynomolgus IL-13 (purchased from sino biological) (cynomolgus) (UniProt Q0PW92); test: ELISA, cynomolgus IL-13; antibody at 0.021 nM
[12] = molecular target: cynomolgus IL-13 (purchased from sino biological) (cynomolgus) (UniProt Q0PW92); test: ELISA, cynomolgus IL-13; antibody at 2.67 nM
[13] = molecular target: his-labeled human IL-13 (immunogen A) (human) (UniProt P35225); test: FACS blocking, biotin-IL-13 on IL-13Ra2 HEK293 cells; antibody at 0.002 nM
[14] = molecular target: his-labeled human IL-13 (immunogen A) (human) (UniProt P35225); test: FACS blocking, biotin-IL-13 on IL-13Ra1/IL-4Ra HEK293 cells; antibody at 0.05 nM
[15] = molecular target: cynomolgus IL-13 (purchased from sino biological) (cynomolgus) (UniProt Q0PW92); test: ELISA, cynomolgus IL-13; antibody at 0.004 nM
[16] = molecular target: his-labeled human IL-13 (immunogen A) (human) (UniProt P35225); test: ELISA, biotin-immunogen A; antibody at 0.11 nM
[17] = molecular target: his-labeled human IL-13 (immunogen A) (human) (UniProt P35225); test: FACS blocking, biotin-IL-13 on IL-13Ra2 HEK293 cells; antibody at 1.33 nM
[18] = molecular target: his-labeled human IL-13 (immunogen A) (human) (UniProt P35225); test: FACS blocking, biotin-IL-13 on IL-13Ra1/IL-4Ra HEK293 cells; antibody at 0.002 nM
[19] = molecular target: his-labeled human IL-13 (immunogen A) (human) (UniProt P35225); test: ELISA, biotin-immunogen A; antibody at 13.33 nM
[20] = molecular target: his-labeled human IL-13 (immunogen A) (human) (UniProt P35225); test: FACS blocking, biotin-IL-13 on IL-13Ra1/IL-4Ra HEK293 cells; antibody at 0.01 nM
[21] = molecular target: his-labeled human IL-13 (immunogen A) (human) (UniProt P35225); test: FACS blocking, biotin-IL-13 on IL-13Ra1/IL-4Ra HEK293 cells; antibody at 1.33 nM
[22] = molecular target: cynomolgus IL-13 (purchased from sino biological) (cynomolgus) (UniProt Q0PW92); test: ELISA, cynomolgus IL-13; antibody at 0.53 nM
[23] = molecular target: his-labeled human IL-13 (immunogen A) (human) (UniProt P35225); test: FACS blocking, biotin-IL-13 on IL-13Ra1/IL-4Ra HEK293 cells; antibody at 6.67 nM
[24] = molecular target: his-labeled human IL-13 (immunogen A) (human) (UniProt P35225); test: FACS blocking, biotin-IL-13 on IL-13Ra2 HEK293 cells; antibody at 6.67 nM
[25] = molecular target: his-labeled human IL-13 (immunogen A) (human) (UniProt P35225); test: FACS blocking, biotin-IL-13 on IL-13Ra2 HEK293 cells; antibody at 0.01 nM
[26] = molecular target: his-labeled human IL-13 (immunogen A) (human) (UniProt P35225); test: SPR (Biacore), antibody captured by anti-human Fc, immunogen A as analyte
[27] = molecular target: his-labeled human IL-13R130Q variant (human) (UniProt P35225); test: ELISA, IL-13R130Q variant; antibody at 0.53 nM
Sequence of his-labeled human IL-13R130Q variant (human) (P35225 other isoform, or with tags, fused parts or gaps mutant): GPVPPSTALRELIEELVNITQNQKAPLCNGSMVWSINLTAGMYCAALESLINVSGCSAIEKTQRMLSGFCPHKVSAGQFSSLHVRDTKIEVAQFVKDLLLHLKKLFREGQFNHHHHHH

Sequence of cynomolgus IL-13 (purchased from sino biological) (cynomolgus) (Q0PW92 entry or part of it): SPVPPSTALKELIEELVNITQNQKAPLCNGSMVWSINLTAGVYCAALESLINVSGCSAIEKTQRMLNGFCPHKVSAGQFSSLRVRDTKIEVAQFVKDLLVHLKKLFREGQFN

B1: 29D9H8 (lead antibody, mouse hybridoma) (antibody, V domains shown)
VH: QVQLQQSGAELVRPGASVTLSCKASGYTFTDYEMHWVKQTPVHGLEWIGGIDPETGGTASNQKFKGKAILTADKSSSTAYMELRSLTSEDSAVYYCTSGDYFGGGPFAYWGQGTLVTVSA
VL: DIKMTQSPSSMYASLGERVTITCKASQDINSYLSWFQQKPGKSPKTLIYRANRLVDGVPSRFSGSGSGQDYSLTISSLDYEDMGIYYCLQYDEFPYTFGGGTKLEIK
notes: Mouse monoclonal antibody purified from hybridoma supernatant on Protein G
With B1 the mean fluorescence intensity [1] was 45.3, the mean fluorescence intensity [2] was 14.8 and the OD450 nm [3] was 1.61. The mean fluorescence intensity [4] was 45.4, the mean fluorescence intensity [5] was 67.6 and the OD450 nm [6] was 1.24. The TARC (pg/mL), A549 cells + IL-13 5 ng/mL + TNFα; antibody at 0.001 nM [7] was 1910 pg/mL, the TARC (pg/mL), A549 cells + IL-13 5 ng/mL + TNFα; antibody at 0.004 nM [7] was 1720 pg/mL and the TARC (pg/mL), A549 cells + IL-13 5 ng/mL + TNFα; antibody at 0.021 nM [7] was 1600 pg/mL. For the same binder, the TARC (pg/mL), A549 cells + IL-13 5 ng/mL + TNFα; antibody at 0.11 nM [7] was 1300 pg/mL, the TARC (pg/mL), A549 cells + IL-13 5 ng/mL + TNFα; antibody at 0.5 nM [7] was 653 pg/mL and the TARC (pg/mL), A549 cells + IL-13 5 ng/mL + TNFα; antibody at 2.7 nM [7] was 146 pg/mL. For the same binder, the TARC (pg/mL), A549 cells + IL-13 5 ng/mL + TNFα; antibody at 13.3 nM [7] was 53 pg/mL, the TARC (pg/mL), A549 cells + IL-13 5 ng/mL + TNFα; antibody at 66.7 nM [7] was 42 pg/mL and the mean fluorescence intensity [8] was 15.9. For the same binder, the mean fluorescence intensity [9] was 20.5, the mean fluorescence intensity [10] was 21.5 and the OD450 nm [11] was 0.56. The OD450 nm [12] was 2.36, the mean fluorescence intensity [13] was 76.3 and the mean fluorescence intensity [14] was 68.5. The OD450 nm [15] was 0.19, the OD450 nm [16] was 0.85 and the mean fluorescence intensity [17] was 32.3. The mean fluorescence intensity [18] was 75.3, the OD450 nm [19] was 1.6 and the mean fluorescence intensity [20] was 74.2. The mean fluorescence intensity [21] was 24, the OD450 nm [22] was 2.05 and the mean fluorescence intensity [23] was 16.6. For the same binder, the mean fluorescence intensity [24] was 23.6 and the mean fluorescence intensity [25] was 74.6.

B2: c29D9H8 (mouse-human chimeric IL-13 antibody) (antibody, V domains shown)
VH: QVQLQQSGAELVRPGASVTLSCKASGYTFTDYEMHWVKQTPVHGLEWIGGIDPETGGTASNQKFKGKAILTADKSSSTAYMELRSLTSEDSAVYYCTSGDYFGGGPFAYWGQGTLVTVSA
VL: DIKMTQSPSSMYASLGERVTITCKASQDINSYLSWFQQKPGKSPKTLIYRANRLVDGVPSRFSGSGSGQDYSLTISSLDYEDMGIYYCLQYDEFPYTFGGGTKLEIK
In the case of B2, the mean fluorescence intensity [1] is reported as 72.6, the mean fluorescence intensity [2] is reported as 20 and the mean fluorescence intensity [4] is reported as 56.3. The Kd [26] was 0.0324 nM, the koff [26] was 0.000813 s⁻¹ and the kon [26] was 2.51e+07 M⁻¹ s⁻¹. For the same binder, the mean fluorescence intensity [5] was 81.6, the OD450 nm [27] was 2.46 and the Periostin (pg/mL), MRCS cells + IL-13 5 ng/mL; antibody at 0.0002 nM [7] was 6190 pg/mL. For the same binder, the Periostin (pg/mL), MRCS cells + IL-13 5 ng/mL; antibody at 0.001 nM [7] was 4630 pg/mL, the Periostin (pg/mL), MRCS cells + IL-13 5 ng/mL; antibody at 0.004 nM [7] was 3480 pg/mL and the Periostin (pg/mL), MRCS cells + IL-13 5 ng/mL; antibody at 0.021 nM [7] was 3570 pg/mL. It also gave a Periostin (pg/mL), MRCS cells + IL-13 5 ng/mL; antibody at 0.11 nM [7] of 3220 pg/mL, a Periostin (pg/mL), MRCS cells + IL-13 5 ng/mL; antibody at 0.53 nM [7] of 1450 pg/mL and a Periostin (pg/mL), MRCS cells + IL-13 5 ng/mL; antibody at 2.67 nM [7] of 927 pg/mL. For the same binder, the Periostin (pg/mL), MRCS cells + IL-13 5 ng/mL; antibody at 13.3 nM [7] was 1150 pg/mL, the TARC (pg/mL), A549 cells + IL-13 + TNFα; antibody at 0.001 nM [7] was 3160 pg/mL and the TARC (pg/mL), A549 cells + IL-13 + TNFα; antibody at 0.004 nM [7] was 2950 pg/mL. It also gave a TARC (pg/mL), A549 cells + IL-13 + TNFα; antibody at 0.021 nM [7] of 2730 pg/mL, a TARC (pg/mL), A549 cells + IL-13 + TNFα; antibody at 0.11 nM [7] of 1850 pg/mL and a TARC (pg/mL), A549 cells + IL-13 + TNFα; antibody at 0.53 nM [7] of 655 pg/mL. For the same binder, the TARC (pg/mL), A549 cells + IL-13 + TNFα; antibody at 2.67 nM [7] was 159 pg/mL, the TARC (pg/mL), A549 cells + IL-13 + TNFα; antibody at 13.3 nM [7] was 50 pg/mL and the TARC (pg/mL), A549 cells + IL-13 + TNFα; antibody at 66.7 nM [7] was 36 pg/mL. The VCAM-1 fluorescence intensity, HUVEC + IL-13 0.5 ng/mL + TNFα; antibody at 0.0002 nM [7] was 364, the VCAM-1 fluorescence intensity, HUVEC + IL-13 0.5 ng/mL + TNFα; antibody at 0.001 nM [7] was 373 and the VCAM-1 fluorescence intensity, HUVEC + IL-13 0.5 ng/mL + TNFα; antibody at 0.004 nM [7] was 393. For the same binder, the VCAM-1 fluorescence intensity, HUVEC + IL-13 0.5 ng/mL + TNFα; antibody at 0.021 nM [7] was 409, the VCAM-1 fluorescence intensity, HUVEC + IL-13 0.5 ng/mL + TNFα; antibody at 0.11 nM [7] was 251 and the VCAM-1 fluorescence intensity, HUVEC + IL-13 0.5 ng/mL + TNFα; antibody at 0.53 nM [7] was 265. For the same binder, the VCAM-1 fluorescence intensity, HUVEC + IL-13 0.5 ng/mL + TNFα; antibody at 2.67 nM [7] was 246, the VCAM-1 fluorescence intensity, HUVEC + IL-13 0.5 ng/mL + TNFα; antibody at 13.3 nM [7] was 186 and the mean fluorescence intensity [8] was 20.2. It also gave a mean fluorescence intensity [9] of 20.4, a mean fluorescence intensity [10] of 22.8 and an OD450 nm [11] of 0.408. It also gave an OD450 nm [12] of 3.2, a mean fluorescence intensity [13] of 101 and a mean fluorescence intensity [14] of 90.3. It also gave an OD450 nm [15] of 0.17, a mean fluorescence intensity [17] of 34.6 and a mean fluorescence intensity [18] of 105. The mean fluorescence intensity [20] was 101, the mean fluorescence intensity [21] was 45.7 and the OD450 nm [22] was 2.68. For the same binder, the mean fluorescence intensity [23] was 28.3, the mean fluorescence intensity [24] was 25 and the mean fluorescence intensity [25] was 95.9.
